Laboratory results: patent publication US20170362293A1 (GENEXINE, published 2017)

Target: GLP-2R
Test: cell-based or functional assay

B1: GLP-2-hyFc9 fusion polypeptide (Fc fusion)
chain: HGDGSFSDEMNTILDNLAARDFINWLIQTKITDAKATTAPATTRNTGRGGEEKKKEKEKEEQEERETKTPECPSHTQPLGVFLFPPKPKDTLMISRTPEVTCVVVDVSQEDPEVQFNWYVDGVEVHNAKTKPREEQFNSTYRVVSVLTVLHQDWLNGKEYKCKVSNKGLPSSIEKTISKAKGQPREPQVYTLPPSQEEMTKNQVSLTCLVKGFYPSDIAVEWESNGQPENNYKTTPPVLDSDGSFFLYSRLTVDKSRWQEGNVFSCSVMHEALHNHYTQKSLSLSLGK
  membrane depolarization induced by increased intracellular cAMP in GLP-2R-expressing 293 cells; activity relative to GLP-2-2G peptide set at 100%: 98%
